Laboratory results reported in PMC6224402, “PIM2-mediated phosphorylation of hexokinase 2 is critical for tumor growth and paclitaxel resistance in breast cancer” (Oncogene, 2018).

Biological target: T1, GST-tagged HK2 (human, UniProt P52789 1-917)
T1 construct: Hexokinase 2 (HK2), human cDNA cloned into pGEX-4T-1; also called GST-HK2; source: E. coli BL21 (DE3), purified
T1 sequence (looked up): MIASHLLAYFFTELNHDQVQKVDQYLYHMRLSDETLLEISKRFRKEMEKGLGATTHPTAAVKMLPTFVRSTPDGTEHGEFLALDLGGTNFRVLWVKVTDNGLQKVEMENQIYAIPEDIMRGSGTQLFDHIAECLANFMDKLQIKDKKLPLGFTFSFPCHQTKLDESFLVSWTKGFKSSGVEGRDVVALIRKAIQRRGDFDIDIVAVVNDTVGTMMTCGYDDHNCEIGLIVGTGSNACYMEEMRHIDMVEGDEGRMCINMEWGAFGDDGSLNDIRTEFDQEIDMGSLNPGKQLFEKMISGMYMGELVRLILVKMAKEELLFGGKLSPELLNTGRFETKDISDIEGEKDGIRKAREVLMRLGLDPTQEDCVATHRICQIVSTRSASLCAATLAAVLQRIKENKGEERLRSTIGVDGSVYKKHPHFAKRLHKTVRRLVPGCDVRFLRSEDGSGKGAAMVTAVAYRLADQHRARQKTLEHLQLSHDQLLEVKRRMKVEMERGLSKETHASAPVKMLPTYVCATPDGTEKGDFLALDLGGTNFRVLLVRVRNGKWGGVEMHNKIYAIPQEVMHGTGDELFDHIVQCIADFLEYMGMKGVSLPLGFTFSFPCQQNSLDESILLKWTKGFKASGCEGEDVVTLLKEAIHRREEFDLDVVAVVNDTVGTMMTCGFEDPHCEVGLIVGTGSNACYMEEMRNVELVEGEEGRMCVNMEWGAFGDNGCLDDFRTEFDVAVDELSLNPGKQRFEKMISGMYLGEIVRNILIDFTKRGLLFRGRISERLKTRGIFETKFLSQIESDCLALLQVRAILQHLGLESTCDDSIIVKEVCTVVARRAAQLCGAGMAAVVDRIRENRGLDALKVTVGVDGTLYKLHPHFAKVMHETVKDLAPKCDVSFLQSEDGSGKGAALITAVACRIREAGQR
Assay: pull-down; purified GST-tagged HK2 or GST mixed with His-PIM2; GST-binding resin, more than 8 h, five washes with lysis buffer
Settings: both partners purified

binding result: binds
B1: His-tagged PIM2 (enzyme)
chain: not shown
notes: Serine/threonine kinase PIM2, human cDNA cloned into pet28a; also called His-PIM2; source: E. coli BL21 (DE3), purified
